Some results are limits rather than exact numbers.

Data set [1] can be described thus: Km value for glycerol (Lineweaver-Burk, assay method 1). It is filed as biochemical. The following applies: glycerol concentration changed. As to the method: (§1) Generally, the activity was assayed by the method. Using glycerol as substrate, the enzyme activity was assayed on the basis of the amount of produced glycerol-3-phosphoric acid. By adding 0.1 M HEPES buffer of pH 7.9 to 0.2 ml of 0.5% 4-aminoantipyrine solution, 0.2 ml of 1.5% phenol solution, 200 U of the oxidase of glycerol-3-phosphoric acid, 80 U of peroxidase, and 48.4 mg of ATP, a total volume is adjusted to be 21 ml. The resulting solution was used as the stock solution for the following assays. To 3 ml of the assay stock solution, 50 μl of 0.3 M glycerol solution and 100 μl of the enzyme solution were added and mixed. Each reaction was assayed by recording the absorbance at 500 nm for 3 minutes with a spectrophotometer which is controlled to be 37° C., and calculating the change of the absorbance per minute on the initial linear part (triangle OD test). A blank test was conducted by adding 100 μl of a diluted enzyme solution (20 mM potassium phosphate buffer of pH 7.5 containing 0.2% bovine serum albumin) instead of the enzyme solution and carrying out the same procedures as described above and calculating the change of the absorbance per minute (triangle OD blank). […]

Data set [2] is described as follows: Resistance against preservative (remaining activity ratio). The class given is physicochemical. As to the method: After dissolving glycerol kinase from each origin in 50 mM potassium phosphate buffer of pH 7.5 to become about 5 U/ml, each preservative was added at a concentration shown in the figure and stored at 4° C. for one week, to assay the remaining activity. […] The remaining activity ratio of the enzyme from each origin is shown in the order from the top as the activity when 0.3 mM ProClin® 300 is present, […] ProClin® 150 is present, 500 mg/L IZU is present, 100 mg/L MIT is present and no preservative is added.
After dissolving glycerol kinase from each origin in 50 mM potassium phosphate buffer of pH 7.5 to become about 5 U/ml, each preservative was added at a concentration shown in the figure and stored at 25° C. for one week to assay the remaining activity. […] The remaining activity ratio of the enzyme from each origin is shown in the order from the top as the activity when 0.3 mM ProClin® 300 is present, 0.8 mM ProClin® 150 is present, 500 mg/L IZU is present, 100 mg/L MIT is present and no preservative is added.
The resistance against preservative in the present invention can be evaluated on the basis of the remaining activity ratio when about 5 U/mL glycerol kinase coexists with preservative at 25° C. for one week in 50 mM potassium phosphate buffer of pH 7.5.
The Km values of glycerol and ATP were calculated according to the Lineweaver-Burk equation according to the method described in the section “Method for assaying glycerol kinase activity” <method 1>, wherein the concentration of glycerol or ATP was changed to assay the glycerol kinase activity at each substrate concentration. • (8) Relative activity: About 41.2 U/mg • (9) Resistance against the presence of preservative: Remaining activity ratio in coexistence with 100 mg/L MIT in 50 mM potassium phosphate buffer of pH 7.5 is shown in FIGS. 5 and 6. The activity was assayed according to the method 1.

Data set [3] can be described thus: Optimal pH (assay method 3). To be noted: 50 mM buffers, 37° C. The class given is biochemical. As to the method:
Glycerol kinase activity was assayed after reaction in each 50 mM buffer at 37° C. for 5 minutes. […] Black circles express the reaction in the presence of 50 mM MES buffer; black squares express the reaction in the presence of 50 mM HEPES buffer; black diamonds express the reaction in the presence of TAPS buffer; black triangles express the reaction in the presence of 50 mM CHES buffer; and white circles express the reaction in the presence of 50 mM glycine-NaOH.
After dividing 3 ml of an active reaction solution (50 mM buffer at each pH, containing 4 mM ATP and 2 mM magnesium chloride) in a test tube, 0.1 ml of a glycerol kinase solution after dilution to an appropriate concentration (about 1 U/ml of the activity measured according to the assay method 1) was added thereto and mixed thoroughly. […] After adding 0.15 ml of the reaction-terminated solution to 3 ml of a chromogenic solution (0.2 M HEPES buffer of pH 7.9 containing 0.01% 4-aminoantipyrin, 0.02% phenol, 5 U/ml peroxidase and 16 U/ml glycerol-3-phosphoric acid oxidase) and mixing, reaction at 37° C. for about 5 minutes was carried out to measure the absorbance at 500 nm. Then, the absorbance of 1 mM L-glycerol-3-phosphoric acid solution was simultaneously measured. The amount of L-glycerol-3-phosphoric acid produced via each enzyme reaction was determined. […]

Data set [4] in a line: Optimal temperature (assay method 2). It is filed as biochemical. The following applies: reaction in 20 mM HEPES buffer, pH 7.9 for 5 minutes. As to the method:
Glycerol kinase activity was assayed after reaction in […], pH 7.9 at each temperature for 5 minutes.
After dividing 3 ml of an active reaction solution (20 mM HEPES buffer of pH 7.9 containing 4 mM ATP and 2 mM magnesium chloride) in a test tube, 0.1 ml of a glycerol kinase solution after dilution to an appropriate concentration (about 1 U/ml of the activity measured according to the assay method 1) was added thereto and mixed thoroughly. Then, the reaction mixture is preliminarily heated at each temperature for about 3 minutes. Then, 0.05 ml of aqueous 0.3 M glycerol solution was added and mixed for initiating the reaction. After the reaction for exact 10 minutes, 1 ml of 1N hydrochloric acid was added to terminate the enzyme reaction. After adding 0.15 ml of the reaction-terminated solution to 3 ml of a chromogenic solution (0.2 M HEPES buffer of pH 7.9 containing 0.01% 4-aminoantipyrin, 0.02% phenol, 5 U/ml peroxidase and 16 U/ml glycerol-3-phosphoric acid oxidase) and mixing, reaction at 37° C. for about 5 minutes was carried out to measure the absorbance at 500 nm. Then, the absorbance of 1 mM L-glycerol-3-phosphoric acid solution was simultaneously measured. The amount of L-glycerol-3-phosphoric acid produced via each of the reactions was determined. […]

A short description of data set [5]: Glycerol kinase activity by rate assay (relative activity of purified enzyme). It is filed as biochemical. To be noted: protein approximated from absorbance at 280 nm. As to the method: Generally, the activity was assayed by the method. Using glycerol as substrate, the enzyme activity was assayed on the basis of the amount of produced glycerol-3-phosphoric acid. By adding 0.1 M HEPES buffer of pH 7.9 to 0.2 ml of 0.5% 4-aminoantipyrine solution, 0.2 ml of 1.5% phenol solution, 200 U of the oxidase of glycerol-3-phosphoric acid, 80 U of peroxidase, and 48.4 mg of ATP, a total volume is adjusted to be 21 ml. The resulting solution was used as the stock solution for the following assays. To 3 ml of the assay stock solution, 50 μl of 0.3 M glycerol solution and 100 μl of the enzyme solution were added and mixed. Each reaction was assayed by recording the absorbance at 500 nm for 3 minutes with a spectrophotometer which is controlled to be 37° C., and calculating the change of the absorbance per minute on the initial linear part (triangle OD test). A blank test was conducted by adding 100 μl of a diluted enzyme solution (20 mM potassium phosphate buffer of pH 7.5 containing 0.2% bovine serum albumin) instead of the enzyme solution and carrying out the same procedures as described above and calculating the change of the absorbance per minute (triangle OD blank).
Based on the change of the absorbance as obtained, the enzyme activity of glycerol kinase was calculated according to the following formula. […]

A short description of data set [6]: pH stability of glycerol kinase. To be noted: 20 hr treatment at 25° C. The class given is physicochemical. As to the method:
Glycerol kinase was dissolved in each of 50 mM buffers to become about 10 U/ml and stored at 25° C. for 20 hours. Subsequently, glycerol kinase activity was assayed to determine remaining activity. […] Black circles express the reaction in the presence of acetate buffer; black squares express the reaction in the presence of potassium phosphate buffer; black diamonds express the reaction in the presence of CHES buffer; black triangles express the reaction in the presence of CAPS buffer.

A short description of data set [7]: Km value for ATP (Lineweaver-Burk, assay method 1). To be noted: ATP concentration changed. It is filed as biochemical. As to the method: as §1
Data set [8] is described as follows: Thermal stability of glycerol kinase. The class given is physicochemical. The following applies: 50 mM potassium phosphate buffer, pH 7.5, 15-min treatment. As to the method: Glycerol kinase was dissolved in 50 mM potassium phosphate buffer of pH 7.5 to become about 10 U/ml and stored at each temperature for 15 minutes. Subsequently, glycerol kinase activity was assayed to determine the remaining activity.
After dissolving the glycerol kinase in 50 mM potassium phosphate buffer of pH 7.5 to become about 10 U/ml, glycerol kinases were stored at each temperature for 15 minutes to assay the remaining activity. […] Black circle expresses glycerol kinase of the present invention; black squares expresses glycerol kinase from Thermus fiavus.

B1: glycerol kinase of the present invention: Recombinant glycerol kinase (SEQ ID NO:1) of Cellulomonas sp. JCM2471 gene, expressed in E. coli KM1 (pCGK12) and purified (protein)
chain: MADYVLAIDQGTTSSRAIVFNHSGEIYSTGQLEHDQIFPRAGWVEHNPEQIWNNVREVVGLALTRGNLTHEDIAAVGITNQRETAVVWDKTTGKPVYNAIVWQDTRTQKIVDELGGDEGAEKYKSIVGLPLATYFSGPKIKWILDNVEGAREKAEKGDLLFGNTDTWVLWNMTGGTEGGVHVTDVTNASRTMLMDLDTLSWREDIAADMGIPLSMLPDIRSSSEVYGHGRPRGLVPGVPIAGILGDQQAATFGQACFEVGQAKNTYGTGNFLLLNTGTEKVMSKNGLLTTVCYKIGDAPAVYALEGSIAVTGSLVQWLRDNLGMFEDAPDVEWLAGKVQDNGGAYFVPAFSGLFAPYWRPDARGALVGLTRYVNRNHIARAALEATAFQSREVVDAMNADSGVDLTELRVDGGMVANELLMQFQADQLGVDVVRPKVAETTALGAAYAAGIAVGFWKGEQDVIDNWAEDKRWSPSMESGERERLYRNWKKAVTKTMEWVDEDVEQ
modifications: Cellulomonas sp. JCM2471
notes: JCM2471 gene, expressed in E. coli KM1 (pCGK12) and purified
For orientation: Km means the concentration of substrate that gives half-maximal velocity. As for B1, the Km was approximately 6.9 µM in data set [1] and approximately 111 µM in data set [7]. Further, the Remaining activity ratio in data set [2] (100 mg/L MIT, 50 mM potassium phosphate buffer pH 7.5, storage at 4° C. for one week) is approximately 100%; in data set [2] (100 mg/L MIT, 50 mM potassium phosphate buffer pH 7.5, storage at 25° C. for one week), “about 92%”; in data set [2] (storage at 25° C. for one week in coexistence with preservatives (sentence names none)) it was not below 90%. In addition, the “Stability in the coexistence of preservatives (in words)” value in data set [2] (compared with glycerol kinase derived from Thermus flavus) is recorded as “high stability in the coexistence of preservatives”. Also, in data set [3], the “Optimal pH” value is listed as “about 10.0”. Further, the Optimal temperature entry in data set [4] was “about 50 °C”. In data set [5], the Relative activity result was “about 41.2 U/mg protein”. In addition, the “pH stability (pH range with remaining activity of 90% or more)” value in data set [6] is listed as 6.0-10.0. Further, in data set [8], the “Thermal stability (temperature range with remaining activity of 90% or more)” value was not above 45 °C.
